Source: paper doi:10.1101/2020.10.15.340570, “Coordination of RNA and protein condensation by the P granule protein MEG-3”

Biological target: T1, MEG-3 HMGL- (Caenorhabditis elegans, UniProt Q9TXM1 1-862, F705A;Y708A;Y713A;N725A)
T1 sequence: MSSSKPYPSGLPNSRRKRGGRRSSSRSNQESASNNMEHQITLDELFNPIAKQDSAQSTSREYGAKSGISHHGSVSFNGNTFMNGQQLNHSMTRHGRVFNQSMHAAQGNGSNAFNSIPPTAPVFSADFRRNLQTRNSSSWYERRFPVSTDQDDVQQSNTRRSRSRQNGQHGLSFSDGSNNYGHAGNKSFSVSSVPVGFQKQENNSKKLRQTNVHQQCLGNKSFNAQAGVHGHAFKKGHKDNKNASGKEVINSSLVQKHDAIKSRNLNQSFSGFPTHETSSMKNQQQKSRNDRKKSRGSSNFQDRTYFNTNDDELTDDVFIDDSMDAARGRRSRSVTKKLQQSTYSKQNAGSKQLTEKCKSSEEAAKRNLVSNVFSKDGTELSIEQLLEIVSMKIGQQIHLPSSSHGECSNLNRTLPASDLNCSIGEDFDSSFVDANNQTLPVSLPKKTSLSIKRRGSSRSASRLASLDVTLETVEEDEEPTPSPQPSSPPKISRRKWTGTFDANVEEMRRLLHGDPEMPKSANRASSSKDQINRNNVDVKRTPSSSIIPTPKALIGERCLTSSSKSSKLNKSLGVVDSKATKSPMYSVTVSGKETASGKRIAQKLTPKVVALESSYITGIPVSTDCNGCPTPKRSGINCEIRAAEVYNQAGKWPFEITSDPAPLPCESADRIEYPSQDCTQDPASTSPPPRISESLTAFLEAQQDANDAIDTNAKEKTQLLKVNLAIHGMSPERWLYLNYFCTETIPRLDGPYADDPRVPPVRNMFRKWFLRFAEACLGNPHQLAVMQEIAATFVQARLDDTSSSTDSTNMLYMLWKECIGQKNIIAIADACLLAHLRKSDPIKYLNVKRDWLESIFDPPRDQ
Assay: filter binding; high affinity, similar to wild type; Kd only in figure; 50 nM RNA, 3.75 mM HEPES (stock pH 7.4), 150 mM NaCl, 0.9 mM beta-mercaptoethanol, 1.5% glycerol, 10 mM Tris HCl, 30 min, room temperature
Settings: protein: recombinant; tags: N-terminal 6xHis (pET28a); label: 3' fluorescein; single strand

B1: 30U RNA (poly-U30) (ssRNA)
RNA: UUUUUUUUUUUUUUUUUUUUUUUUUUUUUU
  binding result: binds
